Experimental findings from US20150133651, “CslA9 Gluco-mannan Synthase Gene” (published 2015) are described below.

Data set [1] has as its target MYB83 (At3g08500) (Arabidopsis thaliana, UniProt Q9C6U1 Q9C6U1:1-343). Put plainly: EMSA; 10 mM Tris pH 7.5, 50 mM KCl, 5 mM MgCl2, poly(dI-dC). The note with it: tags: GST fusion, E. coli Rosetta gami; label: 32P. The procedure:
(§1) DNA fragments for EMSA were obtained by PCR-amplification and labeled with [γ-³²P]ATP using T4 polynucleotide kinase (NEB). The end-labeled probes were purified with Microspin S-200 HR column (GE Healthcare). The labeled DNA fragments were incubated for 25 min with 50 ng of GST-MYB46, GST-MYB83, GST-bZIP1 and GSTANAC041 in a binding buffer [10 mM Tris (pH 7.5), 50 mM KCl, 1 mM DTT, 2.5% glycerol, 5 mM MgCl₂, 100 μg/ml BSA, and 50 ng/μL poly(dI-dC)]. Five percent polyacrylamide gel electrophoresis (PAGE) was used to separate the recombinant protein-bound DNA fragments from the unbound ones. The gel was dried and placed in a film cassette and exposed to X-ray film (Kodak) for overnight. Radioactive fragments were visualized by autoradiography.
In general terms: A gel shift assay detects complexes by their altered migration in electrophoresis.

Data set [2] has as its target MYB46 (Arabidopsis thaliana, UniProt Q9LXV2 SEQ:1-280). Put plainly: EMSA; 10 mM Tris pH 7.5, 50 mM KCl, 5 mM MgCl2, poly(dI-dC); competed by 50x unlabeled probe. The note with it: tags: GST fusion, E. coli Rosetta gami; label: 32P. The procedure:
as §1
To evaluate whether MYB46 could directly bind to the CSLA9 promoter sequence, electrophoretic mobility shift assays (EMSAs) were performed with the GST-MYB46 fusion protein as described in Example 1.

Sequence of MYB83 (At3g08500) (Q9C6U1 whole entry, the tested form may be a part, one chain of several): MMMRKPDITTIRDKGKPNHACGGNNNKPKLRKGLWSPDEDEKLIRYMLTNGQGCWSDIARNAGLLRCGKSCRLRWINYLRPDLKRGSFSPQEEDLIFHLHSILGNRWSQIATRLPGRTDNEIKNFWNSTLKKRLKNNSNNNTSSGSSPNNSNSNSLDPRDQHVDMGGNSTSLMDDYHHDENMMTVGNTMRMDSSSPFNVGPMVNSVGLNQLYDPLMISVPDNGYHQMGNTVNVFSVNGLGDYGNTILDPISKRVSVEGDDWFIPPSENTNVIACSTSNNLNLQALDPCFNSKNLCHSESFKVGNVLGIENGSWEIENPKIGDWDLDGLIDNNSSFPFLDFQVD
Sequence of MYB46 (Q9LXV2 whole entry, the tested form may be a part): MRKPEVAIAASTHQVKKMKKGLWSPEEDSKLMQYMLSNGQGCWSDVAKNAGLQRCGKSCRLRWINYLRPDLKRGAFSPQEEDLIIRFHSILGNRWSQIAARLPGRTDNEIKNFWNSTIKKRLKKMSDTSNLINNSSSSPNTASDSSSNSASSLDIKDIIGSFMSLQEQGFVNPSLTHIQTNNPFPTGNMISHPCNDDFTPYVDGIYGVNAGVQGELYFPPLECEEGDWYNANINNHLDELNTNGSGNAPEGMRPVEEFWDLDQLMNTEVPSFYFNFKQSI

B1: CSLA9 promoter -705 to -556 (dsDNA)
DNA 1: CTTAAAATAACAATTTGTTTTGTATCTTCGCCTGGACGTCATTAATGTTTGTGTCGTTCAATAATGTTTGGTAGTTATATATAGAAAGAGCAAATTTATGGTTGATTGATGGTGCAAAAAAATTCATTTCTCTATATTCTAGAGAAATAA
DNA 2: TTATTTCTCTAGAATATAGAGAAATGAATTTTTTTGCACCATCAATCAACCATAAATTTGCTCTTTCTATATATAACTACCAAACATTATTGAACGACACAAACATTAATGACGTCCAGGCGAAGATACAAAACAAATTGTTATTTTAAG
As to B1, the binding result in data set [1] and in data set [2] was “binds” each time.
